Laboratory results taken from patent publication US20200377595A1 (Chugai, published 2020).
Numbering of substitutions follows the chain as printed. In names and notes the source's numbering stands. Each block holds one binder with its values, some of them ahead of it.

What was measured:
human CD137 = target: T1, human CD137 (human, UniProt Q07011 24-186); assay: ECL, IgG with biotinylated antigen on streptavidin plate, log axis
T1 construct: soluble Biacore analyte; also called hCD137; recombinant human CD137

recombinant human CD3 = target: T2, recombinant human CD3 (human); assay: SPR, Ab captured by anti-Fc, 37 C
T2 construct: also called hCD3

[1] = target: T3, biotin labeled human IgG1 Fc (human, UniProt P01857-1 104-330 = IgG part, limits assumed, biotin-labeled); assay: bead ELISA, IgG
T3 construct: domain: Fc region; control antigen; also called human Fc

[2] = target: T4, biotin-labeled cynomolgus monkey CD137 fused to human IgG1 Fc fragment (cynomolgus monkey; human, UniProt Q07011 24-186, limits assumed, biotin-labeled); assay: ELISA, IgG
T4 construct: also called cyno CD137-Fc; not shown: human IgG1 Fc fragment
T4 chain: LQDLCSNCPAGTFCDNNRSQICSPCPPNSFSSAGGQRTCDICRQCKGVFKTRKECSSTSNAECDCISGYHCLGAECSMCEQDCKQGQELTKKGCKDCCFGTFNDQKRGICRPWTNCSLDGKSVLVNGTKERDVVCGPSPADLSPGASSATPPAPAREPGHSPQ

[3] = target: T5, biotin-labeled human CD137 fused to human IgG1 Fc fragment (human, biotin-labeled); assay: bead ELISA; no competitor
T5 construct: also called human CD137-Fc; biotin-human CD137-Fc

binding result (human CD137): binds
B1: dBBDu_011 (antibody, V domains shown)
VH: QVQLVESGGGLVQPGRSLRLSCAASGFTFSNAWMHWVRQAPGKGLEWVAQIKDKSSLYNTYYAPSVKGRFTISRDDSKNSIYLQMNSLKTEDTAVYYCRYVHYGASYGFLFAGYGVDAWGQGTTVTVSS
VL: DIVMTQSPLSLPVTPGEPASISCRSSQSLVHSNRNTYLHWYQQKPGQAPRLLIYKVSNRFSGVPDRFSGSGSGTDFTLKISRVEAEDVGVYYCGQGTQVPYTFGQGTKLEIK
notes: converted to IgG with human H and L chain constant domains; also called clone 011

Kd (recombinant human CD3): 19.7 nM
koff (recombinant human CD3): 0.00161 s⁻¹
kon (recombinant human CD3): 81800 M⁻¹ s⁻¹
B2: GPC3/CD137xCD3 trispecific antibody (other)
VH 1: QVQLQQWGAGLLKPSETLSLTCAVYGGSFSGYYWSWIRQSPEKGLEWIGEINHGGYVTYNPSLESRVTISVDTSKNQFSLKLSSVTAADTAVYYCARDYGPGNYDWYFDLWGRGTLVTVSS
VL 1: EIVLTQSPATLSLSPGERATLSCRASQSVSSYLAWYQQKPGQAPRLLIYDASNRATGIPARFSGSGSGTDFTLTISSLEPEDFAVYYCQQRSNWPPALTFGGGTKVEIK
VH 2: QVQLVESGGGLVQPGRSLRLSCAASGFTFSNAWMHWVRQAPGKGLEWVAQIKDRANSYNTYYAESVKGRFTISRDDSKNSIYLQMNSLKTEDTAVYYCRYVHYTTYAGSSFSYGVDAWGQGTTVTVSS
VL 2: B1 VL with S28P
VH 3: QVQLVQSGAEVKKPGASVTVSCKASGYTFTDYEMHWIRQPPGEGLEWIGAIDGPTPDTAYSEKFKGRVTLTADKSTSTAYMELSSLTSEDTAVYYCTRFYSYTYWGQGTLVTVSS
VL 3: B1 VL with S28P
notes: mAb AB made by CrossMab and Fab-arm exchange; silent Fc (L235R, G236R, S239K, N297A); also called anti-GPC3/CD137xCD3

RLU [1]: 1920 RLU
B3: DADU01_3#002 (antibody, IgG1, V domains shown)
VH: QVQLVESGGGLVQPGRSLRLSCAASGFTFSNAWMHWVRQAPGKGLEWVAQIKDKQNLYNAYYAESVKGRFTISRDDSKNSIYLQMNSLKTEDTAVYYCHYVHYASASTVLPAFGVDAWGQGTTVTVSS
VL: B1 VL
notes: IgG1; also called dBBDu124

binding result [2]: binds
ELISA signal [3]: 3240
B4: dBBDu181 (antibody, IgG1, V domains shown)
VH: B3 VH with V48I, K54R, Q55G, L57N, A60N, E64P, S105T, V109L, P111G, F113Y
VL: B1 VL
notes: IgG1

RLU [1]: 3260 RLU
B5: DXDU01_3#019 (antibody, IgG1, V domains shown)
VH: QVQLVESGGGLVQPGRSLRLSCAASGFTFSIAWMHWVRQAPGKGLEWVAQIKDKVNGYTAYYAESVKGRFTISRDDSKNSIYLQMNSLKTEDTAVYYCRYVHYAAYYDVLGYGGVDAWGQGTTVTVSS
VL: B1 VL
notes: IgG1; also called dBBDu125
